Source: patent US12264201B2, “Bispecific antibody targeting IL-1R1 and NLPR3” (University of Ulster, priority 2018, dated 2025)

What was measured:
apoE−/− mice [1] = assay: In vivo LPS challenge, serum IL-1β and TNF-α by ELISA; settings: LPS 50 μg/kg i.v., FIG. 37
Protocol: Female apoE−/− mice were fed a Western-type diet containing 0.25% cholesterol and 15% cacao butter (SDS, Sussex, UK) starting 1 week prior to treatment and throughout the experiment. Diet and water were provided ad libitum. After 1 week of diet feeding, mice were injected intraperitoneally with PBS or InflaMab (100 μg or 200 μg) administrated on day 10 and day 14. After 2 weeks of diet and a 1-week treatment mice were challenged intravenously with LPS (50 μg/kg, Salmonella minnesota R595, List Biological Laboratories Inc.) and blood was collected after 0.5, 1, 2 and 4 hours. After 4 hours mice were sacrificed and serum levels of IL-1β and TNF-α were measured by ELISA.
IL-1beta, but not TNFalpha, is inhibited in vivo via LPS challenge—see FIG. 37. Female apoE−/− mice, after 1 week on WTD, were injected intraperitoneally with PBS or InflaMab (100 μg or 200 μg) administrated on day 10 and day 14. After 2 weeks of diet and a 1-week treatment mice were challenged intravenously with LPS (50 μg/kg) and (a) IL-1β and (b) TNF-α were measured by ELISA.

THP1 cells [2] = assay: Caspase-1 activation in THP1 cells (FAM-FLICA staining, confocal); type: cell-based
Protocol: THP1 cells, for FIG. 34, were cultured in 96-well plates at 100,000cells/200 ul complete media. PMA (100 ug/ml for 72 hours) was used to differentiated THP-1 cells into macrophages. Following 24 hours of rest, differentiated THP1 cells were stimulated with LPS (1 ug/ml) for 3 hours, treated with the IL-1R1/NLRP3 Ab (1 μg/ml) for 30 minutes, followed by ATP (5 mM) for 1 hour. Caspase-1 activation was assessed by staining cells with a non-cytotoxic Fluorescent Labelled Inhibitor of Caspase-1 (FAM-FLICA) and DAPI (nuclear stain). Cells were treated with LPS alone (negative control), LPS+ATP (positive control), mouse IgG2a (1 ug/ml, Ab control), or IL-1r/NLRP3 bi-specific Ab (1 ug/ml, experimental). Representative confocal images are shown for each group. Green=active caspae-1 and blue=Dapi/nuclear stain.
(§1) Internalization of Inflamab—see FIG. 35. THP1 cells, for FIG. 35, were cultured in 96-well plates at 100,000cells/200 ul complete media. Differentiation of THP1 cells was induced by PMA (100 ug/ml for 72 hours). Following 24 hours of rest, differentiated THP1 cells were stimulated with LPS (1 ug/ml) for 3 hours, treated with a pHrodo red labelled IL-1r/NLRP3 Ab (1 ug/ml) for 30 minutes, followed by ATP (5 mM) for 1 hour. The internalization of the Ab was tracked using a pHrodo red labelled bi-specific Ab that only fluoresces when internalized.

THP1 cells [3] = assay: Internalization of pHrodo red labelled bi-specific Ab in THP1 cells; type: cell-based; settings: pHrodo red labelled Ab 1 ug/ml 30 min; differentiated THP1, LPS then ATP; confocal; FIG. 35A
Protocol: as §1

apoE−/− mice [4] = assay: Atherosclerosis: collar-induced carotid artery plaque formation, morphometry; type: in vivo
Source text: Female apoE−/− mice were fed a Western-type diet, containing 0.25% cholesterol and 15% cacao butter (SDS, Sussex, UK) starting two weeks prior to surgery and throughout the experiment. After 2 weeks of diet feeding, carotid artery plaque formation was induced by perivascular collar placement in these mice as described previously (von der Thusen et al, Circulation. 2001; 103(8):1164-1170). […] Through the experiment, mice were weighed weekly and blood samples were obtained via the tail vein. Total cholesterol levels were determined in the serum using enzymatic colorimetric procedures (Roche/Hitachi, Mannheim, Germany). Precipath (Roche/Hitachi) was used as an internal standard. Fasting glucose levels were determined in mice at 2 weeks after starting the treatment with InflaMab and were measured with an Accu-Check glucometer (Roche Diagnostics, Almere, The Netherlands). For lipid profiling, serum samples pooled from 3 mice were used (n=3 samples per group) which were diluted 6 times, and fractionation of plasma lipoproteins was performed using an AKTA-FPLC. In each fraction, the total cholesterol levels were determined by incubation with cholesterol CHOD-PAP Reagent (Roche, Woerden, The Netherlands). Absorbance was measured at 492 nm.
After 4 weeks of treatment, the mice were anesthetized and in situ perfused, after which the carotid arteries were collected, frozen in OCT compound (TissueTek; Sakura Finetek, The Netherlands) and stored at −80° C. Transverse 10 μm cryosections were prepared on a Leica CM 3050S Cryostat (Leica Instruments) in a proximal direction for (immuno)histochemical analysis.
Cryosections were routinely stained with hematoxylin (Sigma-Aldrich, Zwijndrecht, The Netherlands) and eosin (Merck Diagnostica, Darmstadt, Germany). Morphometric analysis (Leica Qwin image analysis software) was performed on hematoxylin-eosin stained sections of the carotid arteries. For each carotid, lesion size was quantified every 100 μm, from the first appearance of the lesion proximal to the collar up to complete disappearance of the lesion from the artery. The number of sections analyzed ranged from 5 to 15 sections per mouse, from which average plaque size and plaque volume were calculated. The section with the largest plaque size was annotated as the plaque with maximum stenosis. For the quantification of lesion content in the carotid artery, four consecutive cross-sections containing the largest lesions were used. To determine lipid content, sections were stained with Oil-Red-O (Sigma-Aldrich). Macrophage content of the lesions was assessed using a rat monoclonal MOMA-2 antibody (Serotec, Kidlington, Oxford, UK). Collagen was visualized using a Sirius Red staining (Sigma-Aldrich). Mast cells and neutrophils were visualized by staining of cryosections with naphthol AS-D chloroacetate esterase (Sigma-Aldrich). The number of mast cells and neutrophils was assessed manually in two consecutive cross-sections containing the largest lesions. MOMA-2 and collagen positive areas were quantified by Leica Qwin image analysis software using a Leica DM-RE microscope (Leica Microsystems Inc., Wetzlar, Germany). All morphometric analyses were performed by a blinded operator (T.v.d.H.).
Atherosclerosis study: InflaMab reduces plaque size in an in vivo apoe−/− model of atherosclerosis—see FIG. 38. After 2 weeks of western type diet feeding in female apoE−/− mice, carotid artery plaque formation was induced by perivascular collar placement. […] Carotid arteries then collected for cyrosections. For each carotid, lesion size was quantitated every 80 μm, from the first appearance of the lesion proximal to the collar up to complete disappearance of the lesion from the artery.

B1: InflaMab: 210 kDa bispecific mouse antibody to IL-1R1 and NLRP3; light chain SEQ ID NO: 57, heavy chain with scFv SEQ ID NO: 59 (protein)
light: MVSSAQFLGLLLLCFQGTRCDIVMTQSPATLSVTPGDRVSLSCRASQSISDYLSWYQQRSHESPRLIIKYASQSISGIPSRFSGSGSGSDFTLSINSVEPEDVGVYYCQHGHSFPLTFGSGTKLELKRADAAPTVSIFPPSSEQLTSGGASVVCFLNNFYPKDINVKWKIDGSERQNGVLNSWTDQDSKDSTYSMSSTLTLTKDEYERHNSYTCEATHKTSTSPIVKSFNRNEC
heavy: MGWTLVFLFLLSVTAGVHSQIQLVQSGPELRKPGETVRISCKASGYPFTTAGLQWVQKMSGKGLKWIGWMNTQSEVPKYAEEFKGRIAFSLETAASTAYLQINNLKTEDTATYFCAKSVYFNWRYFDVWGAGTTVTVSSAKTTAPSVYPLAPVCGDTTGSSVTLGCLVKGYFPEPVTLTWNSGSLSSGVHTFPAVLQSDLYTLSSSVTVTSSTWPSQSITCNVAHPASSTKVDKKIEPRGPTIKPCPPCKCPAPNLLGGPSVFIFPPKIKDVLMISLSPIVTCVVVDVSEDDPDVQISWFVNNVEVHTAQTQTHREDYNSTLRVVSALPIQHQDWMSGKEFKCKVNNKDLPAPIERTISKPKGSVRAPQVYVLPPPEEEMTKKQVTLTCMVTDFMPEDIYVEWTNNGKTELNYKNTEPVLDSDGSYFMYSKLRVEKKNWVERNSYSCSVVHEGLHNHHTTKSFSRTPGKGSAGGSGGDSEVQLVESGGGLVKPGGSLKLSCAASGFTFSDYYMYWVRQTPEKRLEWVATISDGGTYTYYPDSVKGRFTISRDNAKNNLYLQMNSLKSEDTAMYYCARGWVSTMVKLLSSFPYWGQGTLVTVSAGGGGSGGGGSGGGGSQAVVTQESALTTSPGETVTLTCRSSTGAVTTSNYANWVQEKPDHLFTGLIGGTNNRAPGVPARFSGSLIGDKAALTITGAQTEDEAIYFCALWYSNYWVFGGGTKLTVLGQPK
IL-1beta secretion in vivo (apoE−/− mice [1]; female apoE−/− mice on Western-type diet, 100 μg or 200 μg i.p. day 10 and 14): specifically inhibit
secretion of TNFalpha in vivo (apoE−/− mice [1]; female apoE−/− mice, 100 μg or 200 μg i.p., specificity): no effect
caspase-1 activation (THP1 cells [2]; differentiated THP1, LPS 1 ug/ml 3 h, Ab 1 μg/ml 30 min, ATP 5 mM 1 h, FAM-FLICA, FIG. 34): prevents
caspase-1 activation in THP1 cells that have internalized the bi-specific Ab as compared to cells that did not (THP1 cells [2]; pHrodo red labelled Ab 1 ug/ml 30 min, LPS then ATP, confocal, FIG. 35B): significant reduction
internalization of the Ab (THP1 cells [3]): shows the internalization
reduction in lesion size (apoE−/− mice [4]; FIG. 38, significant, versus control): −35%
Mouse weight (apoE−/− mice [4]; InflaMab versus control groups): no difference
general white blood cell levels (hematology analysis) (apoE−/− mice [4]; InflaMab versus control groups): no difference
% reduction of plaque size at site of maximal stenosis (apoE−/− mice [4]; InflammAb average versus Control IgG average): 30.6164%
Average plaque size, group Average (apoE−/− mice [4]; group average, 10 mice listed): 36604 μm^2
Lumen size at site of maximal stenosis, Average (apoE−/− mice [4]; group average, 10 mice listed): 11415 μm^2
Media (size) at site of maximal stenosis, Average (apoE−/− mice [4]; group average, 10 mice listed): 40997 μm^2
Plaque size at site of maximal stenosis, Average (apoE−/− mice [4]; group average, 10 mice listed): 58881 μm^2
total vessel area at site of maximal stenosis, Average (apoE−/− mice [4]; group average, 10 mice listed): 111293 μm^2
Lumen size (area of the artery still open for blood flow) compared to Control IgG (apoE−/− mice [4]; in words): almost significantly larger
Total vessel area (plaque+media+lumen) compared to Control IgG (apoE−/− mice [4]; in words): not different
media size (size of the medial smooth muscle layer) compared to Control IgG (apoE−/− mice [4]; in words, Tables 5 and 6): no effect
lesion size, FIG. 38a (apoE−/− mice [4]; versus control, in words): trend towards a reduction
